Assays:
[1] = molecular target: Amb a 1 specific IgE (in serum); experiment: competition ELISA: soluble competitor pre-incubated with serum, IgE binding to plate-coated Amb a 1
[2] = molecular target: IgE on basophils of ragweed allergic patients; experiment: cell-based or functional assay
[3] = molecular target: Amb a 1 specific IgE (in serum); experiment: competition ELISA, ratio against soluble Amb a 1 as reference
[4] = molecular target: Amb a 1 specific IgE (in serum); experiment: competition ELISA: soluble competitor pre-incubated with serum, IgE binding to plate-coated Amb a 1; two lots gave the same value

Row | IC50 [1] [µg/mL] | HR40 (concentration required to induce 40% histamine release), patient four [2] [µg/mL] | HR40 (concentration required to induce 40% histamine release), patient one [2] [µg/mL] | HR40 (concentration required to induce 40% histamine release), patient three [2] [µg/mL] | HR40 (concentration required to induce 40% histamine release), patient two [2] [µg/mL] | HR40, mean of four patients [2] [µg/mL] | ratio of AIC-M to Amb a 1 for 50% inhibition [3] | Ratio AIC:Amb a 1 of HR40 [2] [fold] | ratio of AIC-H to Amb a 1 for 50% inhibition [3] | IC50 [4] [µg/mL] | Binder
1 | 0.04 | 0.0003 | 0.0002 | 0.0003 | 0.0002 | 0.0003 |  |  |  |  | ragweed allergen Amb a 1 (protein, UniProt P27759 26-396, looked up) AEDLQEILPVNETRRLTTSGAYNIIDGCWRGKADWAENRKALADCAQGFGKGTVGGKDGDIYTVTSELDDDVANPKEGTLRFGAAQNRPLWIIFERDMVIRLDKEMVVNSDKTIDGRGAKVEIINAGFTLNGVKNVIIHNINMHDVKVNPGGLIKSNDGPAAPRAGSDGDAISISGSSQIWIDHCSLSKSVDGLVDAKLGTTRLTVSNSLFTQHQFVLLFGAGDENIEDRGMLATVAFNTFTDNVDQRMPRCRHGFFQVVNNNYDKWGSYAIGGSASPTILSQGNRFCAPDERSKKNVLGRHGEAAAESMKWNWRTNKDVLENGAIFVASGVDPVLTPEQSAGMIPAEPGESALSLTSSAGVLSCQPGAPC
2 | 0.12 | 0.07 | 0.03 | 0.03 | 0.028 | 0.0395 | 3 | 132 |  |  | AIC-M (covalent conjugate of Amb a 1 and ISS-containing polynucleotide SEQ ID NO:1, medium extent of conjugation) (protein, ragweed, UniProt P27759 26-396, looked up, average of 3.5 to 4.5 oligonucleotides (5' thio ISS oligonucleotide, SEQ ID NO:1) per Amb a 1 molecule, linked through the heterobifunctional linker sSMCC; Amb a 1 blocked with N-ethyl maleimide before activation) AEDLQEILPVNETRRLTTSGAYNIIDGCWRGKADWAENRKALADCAQGFGKGTVGGKDGDIYTVTSELDDDVANPKEGTLRFGAAQNRPLWIIFERDMVIRLDKEMVVNSDKTIDGRGAKVEIINAGFTLNGVKNVIIHNINMHDVKVNPGGLIKSNDGPAAPRAGSDGDAISISGSSQIWIDHCSLSKSVDGLVDAKLGTTRLTVSNSLFTQHQFVLLFGAGDENIEDRGMLATVAFNTFTDNVDQRMPRCRHGFFQVVNNNYDKWGSYAIGGSASPTILSQGNRFCAPDERSKKNVLGRHGEAAAESMKWNWRTNKDVLENGAIFVASGVDPVLTPEQSAGMIPAEPGESALSLTSSAGVLSCQPGAPC
3 |  | 0.026 | 0.02 | 0.01 | 0.018 | 0.0185 |  | 62 |  |  | AIC-L (covalent conjugate of Amb a 1 and ISS-containing polynucleotide SEQ ID NO:1, low extent of conjugation) (protein, ragweed, UniProt P27759 26-396, looked up, average of 2-3 oligonucleotides (5' thio ISS oligonucleotide, SEQ ID NO:1) per Amb a 1 molecule, linked through the heterobifunctional linker sSMCC; Amb a 1 blocked with N-ethyl maleimide before activation) AEDLQEILPVNETRRLTTSGAYNIIDGCWRGKADWAENRKALADCAQGFGKGTVGGKDGDIYTVTSELDDDVANPKEGTLRFGAAQNRPLWIIFERDMVIRLDKEMVVNSDKTIDGRGAKVEIINAGFTLNGVKNVIIHNINMHDVKVNPGGLIKSNDGPAAPRAGSDGDAISISGSSQIWIDHCSLSKSVDGLVDAKLGTTRLTVSNSLFTQHQFVLLFGAGDENIEDRGMLATVAFNTFTDNVDQRMPRCRHGFFQVVNNNYDKWGSYAIGGSASPTILSQGNRFCAPDERSKKNVLGRHGEAAAESMKWNWRTNKDVLENGAIFVASGVDPVLTPEQSAGMIPAEPGESALSLTSSAGVLSCQPGAPC
4 |  | > 1 | 0.5 | > 0.1 | > 0.1 | > 0.425 |  | > 1420 | 4.75 | 0.19 | AIC-H (covalent conjugate of Amb a 1 and ISS-containing polynucleotide SEQ ID NO:1, high extent of conjugation) (protein, ragweed, UniProt P27759 26-396, looked up, average of >5.5 oligonucleotides (5' thio ISS oligonucleotide, SEQ ID NO:1) per Amb a 1 molecule, linked through the heterobifunctional linker sSMCC; Amb a 1 blocked with N-ethyl maleimide before activation) AEDLQEILPVNETRRLTTSGAYNIIDGCWRGKADWAENRKALADCAQGFGKGTVGGKDGDIYTVTSELDDDVANPKEGTLRFGAAQNRPLWIIFERDMVIRLDKEMVVNSDKTIDGRGAKVEIINAGFTLNGVKNVIIHNINMHDVKVNPGGLIKSNDGPAAPRAGSDGDAISISGSSQIWIDHCSLSKSVDGLVDAKLGTTRLTVSNSLFTQHQFVLLFGAGDENIEDRGMLATVAFNTFTDNVDQRMPRCRHGFFQVVNNNYDKWGSYAIGGSASPTILSQGNRFCAPDERSKKNVLGRHGEAAAESMKWNWRTNKDVLENGAIFVASGVDPVLTPEQSAGMIPAEPGESALSLTSSAGVLSCQPGAPC

— patent US7223398
